In publication PMC9798253 (Protein Science : A Publication of the Protein Society, 2023):

Target: MBP-tagged ADD domain of DNMT3A (476-614) (human, UniProt Q9Y6K1 476-614)
Assay: peptide or protein array

binding result: binds
Binder: EKSPGKLLVKMPFQT [TRD 214–228 peptide (WT, 15mer, E214-T228)]
